Values quoted from earlier work as cited in article PMC11430116.

Biological target: VDAC1 (Homo sapiens) (UniProt P21796)
Chain of UniProt P21796 (P21796 2-283): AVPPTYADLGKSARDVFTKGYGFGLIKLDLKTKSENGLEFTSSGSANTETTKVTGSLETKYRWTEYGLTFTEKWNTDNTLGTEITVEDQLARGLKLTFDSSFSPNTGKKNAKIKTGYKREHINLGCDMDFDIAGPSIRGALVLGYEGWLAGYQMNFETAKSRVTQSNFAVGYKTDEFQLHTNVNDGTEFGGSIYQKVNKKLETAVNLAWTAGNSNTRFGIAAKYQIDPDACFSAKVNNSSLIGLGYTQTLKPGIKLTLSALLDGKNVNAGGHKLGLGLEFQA

Kd: 950 nM
Substance: MAVS (from UniProt Q7Z434)
